Reference: US20050196753

System: recombinant Histone H3

Substance: human coactivator-associated arginine methyltransferase 1 (hCARM1), full-length, purified from baculovirus infected insect cells
- methylation of Histone H3 (in vitro methylation assay, SDS-PAGE and film): hCARM1 methylates Histone H3 efficiently
